Starred links: 1 amine or outer side, 2 acyl side, 3 side chain; linkers in the order of their positions; H or OH if unused. Positions of bridges follow the written chain, without caps; N, C: chain ends. Non-standard residues stand in square brackets, D forms with d. Primed or numbered codes have the meaning given here. B5(16) = 2-amino-2-(pent-4-en-1-yl)hept-6-enoic acid = 2,2-bis(4-pentenyl)glycine (stitching residue), C=CCCCC(CCCC=C)(N[*:1])C(=O)[*:2]; B5(24) = 2-amino-2-(pent-4-en-1-yl)hept-6-enoic acid, 2,2-bis(4-pentenyl)glycine (stitching residue), C=CCCCC(CCCC=C)(N[*:1])C(=O)[*:2]; B5(9) = 2-amino-2-(pent-4-en-1-yl)hept-6-enoic acid (2,2-bis(4-pentenyl)glycine), C=CCCCC(CCCC=C)(N[*:1])C(=O)[*:2]; Phe(2-F) = N[C@@H](Cc1ccccc1F)C(=O)O; Bta = N[C@@H](Cc1csc2ccccc12)C(=O)O; αAllylPro = C=CC[C@@]1(C(=O)O)CCCN1; S8 = C=CCCCCCC[C@](C)(N)C(=O)O
T1: full-length beta-Catenin (Uniprot ID P35222) (Homo sapiens (Human), UniProt P35222 2-781)
T1 construct: Tags of the recombinant protein are not described for the FP assay; also called bCat; B-Catenin
T1 sequence: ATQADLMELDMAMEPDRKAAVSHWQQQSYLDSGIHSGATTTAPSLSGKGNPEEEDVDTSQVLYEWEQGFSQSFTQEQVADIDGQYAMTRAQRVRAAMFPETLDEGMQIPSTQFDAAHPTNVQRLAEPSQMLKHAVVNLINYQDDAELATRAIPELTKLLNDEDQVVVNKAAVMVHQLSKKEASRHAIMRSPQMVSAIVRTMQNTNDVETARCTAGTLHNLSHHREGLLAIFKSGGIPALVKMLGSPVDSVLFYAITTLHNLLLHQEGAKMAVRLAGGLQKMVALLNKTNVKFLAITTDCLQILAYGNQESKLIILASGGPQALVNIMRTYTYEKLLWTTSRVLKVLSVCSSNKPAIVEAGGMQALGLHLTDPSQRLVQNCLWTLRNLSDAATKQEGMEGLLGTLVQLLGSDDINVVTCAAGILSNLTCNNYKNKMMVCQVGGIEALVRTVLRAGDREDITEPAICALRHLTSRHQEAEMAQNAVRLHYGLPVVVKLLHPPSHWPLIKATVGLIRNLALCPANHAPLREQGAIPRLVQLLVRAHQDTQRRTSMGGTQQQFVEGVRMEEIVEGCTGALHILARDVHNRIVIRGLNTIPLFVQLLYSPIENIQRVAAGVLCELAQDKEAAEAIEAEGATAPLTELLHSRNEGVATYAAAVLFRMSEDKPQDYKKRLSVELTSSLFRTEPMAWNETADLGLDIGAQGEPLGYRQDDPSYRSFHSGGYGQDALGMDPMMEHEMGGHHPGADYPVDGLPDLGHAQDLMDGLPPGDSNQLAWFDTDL

T2: full-length beta-Catenin (Uniprot ID P35222) (Homo sapiens (Human), UniProt P35222 1-781)
T2 construct: The assay protocol says full-length beta-Catenin (Uniprot ID P35222); tags are not described; also called bCat; B-Catenin
T2 sequence: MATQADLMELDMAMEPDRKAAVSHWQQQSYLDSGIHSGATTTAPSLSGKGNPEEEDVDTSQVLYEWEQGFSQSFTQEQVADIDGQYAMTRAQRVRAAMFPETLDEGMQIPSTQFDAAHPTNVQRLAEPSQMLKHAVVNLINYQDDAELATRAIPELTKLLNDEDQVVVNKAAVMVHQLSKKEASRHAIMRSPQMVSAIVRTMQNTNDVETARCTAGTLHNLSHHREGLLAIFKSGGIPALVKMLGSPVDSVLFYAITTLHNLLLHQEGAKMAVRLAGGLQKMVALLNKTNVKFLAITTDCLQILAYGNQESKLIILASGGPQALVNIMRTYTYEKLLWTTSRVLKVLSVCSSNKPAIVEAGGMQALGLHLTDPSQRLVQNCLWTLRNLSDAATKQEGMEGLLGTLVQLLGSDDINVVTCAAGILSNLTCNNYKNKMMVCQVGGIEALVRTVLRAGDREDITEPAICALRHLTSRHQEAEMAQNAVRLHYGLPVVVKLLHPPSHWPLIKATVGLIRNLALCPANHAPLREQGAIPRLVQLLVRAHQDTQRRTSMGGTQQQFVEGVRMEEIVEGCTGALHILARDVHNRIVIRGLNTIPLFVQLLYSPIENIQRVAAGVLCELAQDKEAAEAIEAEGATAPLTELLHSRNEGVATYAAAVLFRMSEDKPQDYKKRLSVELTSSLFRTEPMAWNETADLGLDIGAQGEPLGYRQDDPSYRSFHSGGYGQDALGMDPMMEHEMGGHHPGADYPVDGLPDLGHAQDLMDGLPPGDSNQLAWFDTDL

B1: I-637 (peptide)
peptide: XDIXDEAAFQXFXP
modifications: not fully specified; As printed: Ac-PL3-Asp-Ile-B5-Asp-Glu-Ala-Ala-Phe-Gln-S8-Phe-BztA-Pro-NH2; N-terminal Ac, C-terminal NH2; PL3 (1), B5 (4), S8 (11), BztA (13); staples PL3-B5 and B5-S8 by olefin metathesis
notes: Stapled peptide composition; also called Ac-PL3-Asp-Ile-B5-Asp-Glu-Ala-Ala-Phe-Gln-S8-Phe-BztA-Pro-NH2
B2: I-633 (peptide)
peptide: Ac-[αAllylPro]DI[B5(16)]DEAAFQ[S8]F[Bta]R-NH2
modifications: staple 1-4, 4-11
notes: Stapled peptide composition; also called Ac-PL3-Asp-Ile-B5-Asp-Glu-Ala-Ala-Phe-Gln-S8-Phe-BztA-Arg-NH2
B3: I-634 (peptide)
peptide: Ac-[αAllylPro]DI[B5(16)]DEAAFQ[S8]F[Bta]L-NH2
modifications: staple 1-4, 4-11
notes: Stapled peptide composition; also called Ac-PL3-Asp-Ile-B5-Asp-Glu-Ala-Ala-Phe-Gln-S8-Phe-BztA-Leu-NH2
B4: I-635 (peptide)
peptide: Ac-[αAllylPro]DI[B5(16)]DEAAFQ[S8]F[Bta]F-NH2
modifications: staple 1-4, 4-11
notes: Stapled peptide composition; also called Ac-PL3-Asp-Ile-B5-Asp-Glu-Ala-Ala-Phe-Gln-S8-Phe-BztA-Phe-NH2
B5: I-636 (peptide)
peptide: Ac-[αAllylPro]DI[B5(16)]DEAAFQ[S8]F[Bta]Y-NH2
modifications: staple 1-4, 4-11
notes: Stapled peptide composition; also called Ac-PL3-Asp-Ile-B5-Asp-Glu-Ala-Ala-Phe-Gln-S8-Phe-BztA-Tyr-NH2
B6: I-639 (peptide)
peptide: XDIXDEAAFQXFXS
modifications: not fully specified; As printed: Ac-PL3-Asp-Ile-B5-Asp-Glu-Ala-Ala-Phe-Gln-S8-Phe-BztA-Ser-NH2; N-terminal Ac, C-terminal NH2; PL3 (1), B5 (4), S8 (11), BztA (13); staples PL3-B5 and B5-S8 by olefin metathesis
notes: Stapled peptide composition; also called Ac-PL3-Asp-Ile-B5-Asp-Glu-Ala-Ala-Phe-Gln-S8-Phe-BztA-Ser-NH2
B7: I-640 (peptide)
peptide: XDIXDEAAFQXFXS
modifications: not fully specified; As printed: Ac-PL3-Asp-Ile-B5-Asp-Glu-Ala-Ala-Phe-Gln-S8-Phe-BztA-Ser-NH2; N-terminal Ac, C-terminal NH2; PL3 (1), B5 (4), S8 (11), BztA (13); staples PL3-B5 and B5-S8 by olefin metathesis
notes: as for B6
B8: I-641 (peptide)
peptide: XDIXDEAAFQXFXT
modifications: not fully specified; As printed: Ac-PL3-Asp-Ile-B5-Asp-Glu-Ala-Ala-Phe-Gln-S8-Phe-BztA-Thr-NH2; N-terminal Ac, C-terminal NH2; PL3 (1), B5 (4), S8 (11), BztA (13); staples PL3-B5 and B5-S8 by olefin metathesis
notes: Stapled peptide composition; also called Ac-PL3-Asp-Ile-B5-Asp-Glu-Ala-Ala-Phe-Gln-S8-Phe-BztA-Thr-NH2
B9: I-642 (peptide)
peptide: XDIXDEAAFQXFXT
modifications: not fully specified; As printed: Ac-PL3-Asp-Ile-B5-Asp-Glu-Ala-Ala-Phe-Gln-S8-Phe-BztA-Thr-NH2; N-terminal Ac, C-terminal NH2; PL3 (1), B5 (4), S8 (11), BztA (13); staples PL3-B5 and B5-S8 by olefin metathesis
notes: as for B8
B10: I-643 (peptide)
peptide: Ac-[αAllylPro]DI[B5(9)]DEAAFQ[S8]F[Bta]W-NH2
modifications: staple 1-4, 4-11
notes: Stapled peptide composition; also called Ac-PL3-Asp-Ile-B5-Asp-Glu-Ala-Ala-Phe-Gln-S8-Phe-BztA-Trp-NH2
B11: I-644 (peptide)
peptide: Ac-[αAllylPro]DI[B5(9)]DEAAFQ[S8]F[Bta]W-NH2
modifications: staple 1-4, 4-11
notes: as for B10
B12: I-645 (peptide)
peptide: Ac-[αAllylPro]DI[B5(9)]DEAAFQ[S8]F[Bta]V-NH2
modifications: staple 1-4, 4-11
notes: Stapled peptide composition; also called Ac-PL3-Asp-Ile-B5-Asp-Glu-Ala-Ala-Phe-Gln-S8-Phe-BztA-Val-NH2
B13: I-646 (peptide)
peptide: Ac-[αAllylPro]DI[B5(9)]DEAAFQ[S8]F[Bta]V-NH2
modifications: staple 1-4, 4-11
notes: as for B12
B14: I-638 (peptide)
peptide: XDIXDEAAFQXFXP
modifications: not fully specified; As printed: Ac-PL3-Asp-Ile-B5-Asp-Glu-Ala-Ala-Phe-Gln-S8-Phe-BztA-Pro-NH2; N-terminal Ac, C-terminal NH2; PL3 (1), B5 (4), S8 (11), BztA (13); staples PL3-B5 and B5-S8 by olefin metathesis
notes: as for B1
B15: I-647 (peptide)
peptide: Ac-[αAllylPro]DI[B5(9)]DELAFQ[S8]F[Bta]Q-NH2
modifications: staple 1-4, 4-11
notes: Stapled peptide composition; also called Ac-PL3-Asp-Ile-B5-Asp-Glu-Leu-Ala-Phe-Gln-S8-Phe-BztA-Gln-NH2
B16: I-649 (peptide)
peptide: Ac-[αAllylPro]DI[B5(9)]DEFAFQ[S8]F[Bta]Q-NH2
modifications: staple 1-4, 4-11
notes: Stapled peptide composition; also called Ac-PL3-Asp-Ile-B5-Asp-Glu-Phe-Ala-Phe-Gln-S8-Phe-BztA-Gln-NH2
B17: I-650 (peptide)
peptide: Ac-[αAllylPro]DI[B5(16)]DEFAFQ[S8]F[Bta]Q-NH2
modifications: staple 1-4, 4-11
notes: as for B16
B18: I-651 (peptide)
peptide: Ac-[αAllylPro]DI[B5(16)]DESAFQ[S8]F[Bta]Q-NH2
modifications: staple 1-4, 4-11
notes: Stapled peptide composition; also called Ac-PL3-Asp-Ile-B5-Asp-Glu-Ser-Ala-Phe-Gln-S8-Phe-BztA-Gln-NH2
B19: I-648 (peptide)
peptide: Ac-[αAllylPro]DI[B5(9)]DELAFQ[S8]F[Bta]Q-NH2
modifications: staple 1-4, 4-11
notes: as for B15
B20: I-434 (peptide)
peptide: Ac-[αAllylPro]DA[B5(24)]DEAAFN[S8][Phe(2-F)][Bta]Q-NH2
modifications: staple 1-4, 4-11
notes: Stapled (stitched) peptide with non-natural residues

biological target: T1, full-length beta-Catenin (Uniprot ID …); test: fluorescence polarization competition; full-length beta-catenin, competitor 5FAM-TCF4 10-53
Method: (§1) The plate was incubated protected from light for 60 minutes at 20° C. prior to read. Reads were performed on a CLARIOstar plate reader (BMG Labtech) in duplicate, and data were fitted to a 1:1 binding model with hill slope using an in-house script. All provided concentrations are final concentrations.

First: B1
Second: B2
The IC50 of the first is 57-fold higher: 5000 nM for the first, 88 nM for the second. The second is the more potent here.

Going from B3 to B4, the IC50 falls from 425 nM to 171 nM (2.5-fold).

Compared with B5, B6 is 1.8-fold lower in IC50: 198 nM for the first, 109 nM for the second. The second is the more potent here.

B7 and B8 are within 1.5-fold of each other in IC50: 87 nM for the first, 122 nM for the second.

First: B9
Second: B10
The IC50 of the first is 8.1-fold lower: 118 nM for the first, 958 nM for the second.

Going from B11 to B12, the IC50 falls from 808 nM to 395 nM (2-fold). The second is the more potent here.

Compared with B13, B14 is 8.4-fold higher in IC50: 461 nM for the first, 3880 nM for the second.

First: B15
Second: B16
The IC50 of the first is 2.1-fold higher: 445 nM for the first, 209 nM for the second. The second is the more potent here.

B17 and B18 are within 1.5-fold of each other in IC50: 137 nM for the first, 186 nM for the second.

Binder B19 has an IC50 of 233 nM.

biological target: T2, full-length beta-Catenin (Uniprot ID …); test: fluorescence polarization competition: full-length beta-catenin + 5FAM-TCF4(10-53) probe, peptide titrated
Method: as §1

Binder B20 has an EC50 of 67.5 nM.

From patent publication US20240116985A1 (published 2024)
